Laboratory results taken from patent WO2019006280A1 (dated 2019).

Target: T1, cell-surface CD33 on the CD33-positive AML cell line MV4-11 (UniProt P20138 18-364)
T1 construct: whole, on cells; Endogenous CD33 of the MV4-11 cell line; also called cell-surface expressed CD33; CD33-postive MV4-11 cells
Experiment: flow cytometry on MV4-11 cells, binder at 10 ug/ml, PE anti-flag

T1 sequence (P20138 18-364 limits assumed): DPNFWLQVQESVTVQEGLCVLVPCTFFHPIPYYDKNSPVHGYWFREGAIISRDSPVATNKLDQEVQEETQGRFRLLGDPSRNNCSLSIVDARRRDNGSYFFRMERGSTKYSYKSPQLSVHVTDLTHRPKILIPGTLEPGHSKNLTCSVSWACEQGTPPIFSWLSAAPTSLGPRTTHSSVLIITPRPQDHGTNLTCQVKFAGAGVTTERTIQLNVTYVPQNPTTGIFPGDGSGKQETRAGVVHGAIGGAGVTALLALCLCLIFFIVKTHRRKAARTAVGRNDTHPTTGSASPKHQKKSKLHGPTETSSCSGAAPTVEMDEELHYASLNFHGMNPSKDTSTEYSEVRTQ

B1: ml033-2 VH domain antibody (VHH)
VHH: EVQLVESGGGLVQPGGSLRLSCAASGFTFSSYGMSWVRQAPRKGLEWIGEINHSGSTNYNPSLKSRVTISRDNSKNTLYLQMNSLRAEDTATYYCARPLNYYYYYMDVWGKGTTVTVSS
notes: also called single domain antibody ml 033-2; m1033-2; not shown: His and Flag tags
  binding result: binds
